Measurements from PMC4749439 (Cell metabolism, 2015).
No end group written: not given here.

B1: S^35-labeled FLAG-tagged SDHAF1 wild type (in vitro) (natural protein, human, UniProt A6NFY7 1-115, looked up)
chain: MSRHSRLQRQVLSLYRDLLRAGRGKPGAEARVRAEFRQHAGLPRSDVLRIEYLYRRGRRQLQLLRSGHATAMGAFVRPRAPTGEPGGVGCQPDDGDSPRNPHDSTGAPETRPDGR
modifications: S^35 label
B2: SDHAF1 second LYR to triple alanines (in vitro) (natural protein, human, UniProt A6NFY7 1-115, looked up)
chain: MSRHSRLQRQVLSLYRDLLRAGRGKPGAEARVRAEFRQHAGLPRSDVLRIEYAAARGRRQLQLLRSGHATAMGAFVRPRAPTGEPGGVGCQPDDGDSPRNPHDSTGAPETRPDGR
modifications: S^35 label
B3: SDHAF1 G57R (in vitro) (natural protein, human, UniProt A6NFY7 1-115, looked up)
chain: MSRHSRLQRQVLSLYRDLLRAGRGKPGAEARVRAEFRQHAGLPRSDVLRIEYLYRRRRRQLQLLRSGHATAMGAFVRPRAPTGEPGGVGCQPDDGDSPRNPHDSTGAPETRPDGR
modifications: S^35 label
B4: SDHB146-218 (domain or fragment, human, UniProt P21912 146-218, looked up)
chain: FYAQYKSIEPYLKKKDESQEGKQQYLQSIEEREKLDGLYECILCACCSTSCPSYWWNGDKYLGPAVLMQAYRW
B5: SDHAF1 clone 4 (residues 50–115) (domain or fragment, human, UniProt A6NFY7 50-115, looked up)
chain: IEYLYRRGRRQLQLLRSGHATAMGAFVRPRAPTGEPGGVGCQPDDGDSPRNPHDSTGAPETRPDGR
modifications: also: 35S label
B6: SDHAF1 clone 5 (residues 61–115) (domain or fragment, human, UniProt A6NFY7 61-115, looked up)
chain: LQLLRSGHATAMGAFVRPRAPTGEPGGVGCQPDDGDSPRNPHDSTGAPETRPDGR
modifications: also: 35S label
B7: SDHAF1 clone 2 (residues 40–115) (domain or fragment, human, UniProt A6NFY7 40-115, looked up)
chain: AGLPRSDVLRIEYLYRRGRRQLQLLRSGHATAMGAFVRPRAPTGEPGGVGCQPDDGDSPRNPHDSTGAPETRPDGR
modifications: S^35 label

These binders were tested against T1, S^35-HSC20 (UniProt Q8IWL3 1-235, S^35 label) (assay: pull-down).
T1 sequence (looked up): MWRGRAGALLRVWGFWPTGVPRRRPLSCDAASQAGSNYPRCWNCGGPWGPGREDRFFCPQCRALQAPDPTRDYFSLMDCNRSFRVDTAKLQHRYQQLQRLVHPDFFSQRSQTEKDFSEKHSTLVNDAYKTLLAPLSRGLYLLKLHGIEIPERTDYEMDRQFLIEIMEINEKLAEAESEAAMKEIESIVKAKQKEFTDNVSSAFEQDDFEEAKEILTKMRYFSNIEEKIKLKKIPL

Binding result, binds:
B1
B2
B3
MSRHSRLQRQVLSLYRDLLRAGRGKPGAEARVRAEFRQH (domain or fragment, human, UniProt A6NFY7 1-39, looked up, also: 35S label) [SDHAF1 clone 1 (residues 1–39)]
MSRHSRLQRQVLSLYRDLLRAGRGKPGAEARVRAE (domain or fragment, human, UniProt A6NFY7 1-35, looked up, also: 35S label) [SDHAF1 clone 3 (residues 1–35)]

The binders below were run against B1 (assay: pull-down).

Binding result, binds:
B4

What follows are binders tested against T2, S^35-SDHB (human, UniProt P21912 1-280, S^35 label) (assay: pull-down).
T2 sequence (looked up): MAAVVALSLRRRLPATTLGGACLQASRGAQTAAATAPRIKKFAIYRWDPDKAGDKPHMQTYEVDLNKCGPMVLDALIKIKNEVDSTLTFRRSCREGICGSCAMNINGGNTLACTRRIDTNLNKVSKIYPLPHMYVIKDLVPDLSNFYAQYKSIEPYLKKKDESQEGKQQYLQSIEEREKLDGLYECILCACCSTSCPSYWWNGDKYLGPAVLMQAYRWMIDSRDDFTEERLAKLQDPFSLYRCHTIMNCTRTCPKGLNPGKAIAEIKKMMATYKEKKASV

Binding result, binds:
B5
B6
B7
